# Where “and” joins values, the source holds several entries; their conditions need not be identical. Equal values may be shown once. Read-outs that look alike come from different tables or passages of the source.
# B1: humanized anti-human TIGIT monoclonal antibody P03487 (antibody, V domains shown)
# VH: QVQLVQSGAEVKKPGASVKVSCKASGYTFISYNIYWVRQAPGQGLEWIGGVNPSNGNTNFNENFKSRVTLTVDKSISTAYMELSRLRSDDTAVYYCTRGNYYGYEFAYWGQGTTVTVSS
# VL: DIQMTQSPSSMSASVGDRVTITCKASQHVSTAVAWYQQKPGKAPKLLIYSPSYRYTGVPSRFSGSGSGTDFTFTISSVQPEDIATYYCQQHYSTPWTFGGGTKLEIK
# B2: humanized anti-human TIGIT monoclonal antibody P03490 (antibody, V domains shown)
# VH: QVQLVQSGAEVKKPGASVKLSCKASGYTFISYNIYWVRQAPGQGLEWIGGVNPSNGNTNFNENFKSRATLTVDKSSSTAYMELSRLRSDDTAVYFCTRGNYYGYEFAYWGQGTTVTVSS
# VL: DIQMTQSPSSLSASVGDRVTITCKASQHVSTAVAWYQQKPGKAPKLLIYSPSYRYTGVPSRFSGSGSGTDFTFTISSLQPEDIATYYCQQHYSTPWTFGGGTKLEIK
# B3: humanized anti-human TIGIT monoclonal antibody P03491 (antibody, V domains shown)
# VH: QVQLVQSGAEVKKPGASVKVSCKASGYTFISYNIYWVRQAPGQGLEWIGGVNPSNGNTNFNENFKSRVTLTVDKSISTAYMELSRLRSDDTAVYYCTRGNYYGYEFAYWGQGTTVTVSS
# VL: DIQMTQSPSSLSASVGDRVTITCKASQHVSTAVAWYQQKPGKAPKLLIYSPSYRYTGVPSRFSGSGSGTDFTFTISSLQPEDIATYYCQQHYSTPWTFGGGTKLEIK
# B4: humanized anti-human TIGIT monoclonal antibody P03492 (antibody, V domains shown)
# VH: QVQLVQSGAEVKKPGASVKVSCKASGYTFISYNIYWVRQAPGQGLEWIGGVNPSNGNTNFNENFKGRVTLTVDTSISTAYMELSRLRSDDTAVYYCTRGNYYGYEFAYWGQGTTVTVSS
# VL: DIQMTQSPSSLSASVGDRVTITCKASQHVSTAVAWYQQKPGKAPKLLIYSPSYRYTGVPSRFSGSGSGTDFTFTISSLQPEDIATYYCQQHYSTPWTFGGGTKLEIK
# B5: humanized anti-human TIGIT monoclonal antibody P03486 (antibody, V domains shown)
# VH: QVQLVQSGAEVKKPGASVKLSCKASGYTFISYNIYWVRQAPGQGLEWIGGVNPSNGNTNFNENFKSRATLTVDKSSSTAYMELSRLRSDDTAVYFCTRGNYYGYEFAYWGQGTTVTVSS
# VL: DIQMTQSPSSMSASVGDRVTITCKASQHVSTAVAWYQQKPGKAPKLLIYSPSYRYTGVPSRFSGSGSGTDFTFTISSVQPEDIATYYCQQHYSTPWTFGGGTKLEIK
# B6: humanized anti-human TIGIT monoclonal antibody P03493 (antibody, V domains shown)
# VH: QVQLVQSGAEVKKPGASVKVSCKASGYTFISYNIYWVRQAPGQGLEWMGGVNPSNGNTNFNENFQGRVTMTVDTSISTAYMELSRLRSDDTAVYYCTRGNYYGYEFAYWGQGTTVTVSS
# VL: DIQMTQSPSSLSASVGDRVTITCKASQHVSTAVAWYQQKPGKAPKLLIYSPSYRYTGVPSRFSGSGSGTDFTFTISSLQPEDIATYYCQQHYSTPWTFGGGTKLEIK
# B7: anti-human TIGIT mouse monoclonal antibody 7103-08 (antibody, V domains shown)
# VH: EVQLQESGPELVKPGASVKISCKASGYSFTGYYMLWVKQSHVKSLEWIGRINPYNGATTYNQNFKDKASLTVNKSSSTAYMELHSLTSEDSAVYYCARWFGDFDFWGQGTTLTVSS
# VL: DIQMTQSPSSLSASLGERVSLTCRASQEISGYLSWLQQKPDGTIKRLIYATSTLDSGVPKRFSGSRSGSDYSLTISSLESEDFADYYCLQYASYPFTFGSGTKLEIK
# notes: also called 49F8-1-2
# B8: humanized anti-human TIGIT monoclonal antibody P03479 (antibody, V domains shown)
# VH: EVQVVESGGGLVKPGGSLRLSCAASGFTFSTYAMSWVRQAPGKGLEWVAEISSGGSHTFYADTVKGRFTISRDNAKNTLYLQMNSLRAEDTAVYYCARKTLDYYALDYWGQGTTVTVSS
# VL: DVQITQSPSYLSASVGDRVTINCRASKSISKYLAWYQQKPGKAPKLLIYSGSRLQSGIPSRFSGSGYGTDFTLTISSLQPEDFATYYCQQHNEYPWTFGGGTKLEIK
# B9: humanized anti-human TIGIT monoclonal antibody P04665 (antibody, V domains shown)
# VH: EVQVVESGGGLVKPGGSLRLSCAASGFTFSTYAMSWVRQAPEQRLEWVAEISSGGSHTFYSDTVTGRFTISRDNAKNTLYLQMNSLRAEDTAVYYCARKTLDYYALDYWGQGTTVTVSS
# VL: DIQMTQSPSSVSASVGETITITCRASKSISKYLAWYQQKPGKAPKLLIYSGSRLQSGVPSRFSGSGSGTDFTLTISSLQPEDFATYYCQQHNEYPWTFGGGTKLEIK
# B10: humanized anti-human TIGIT monoclonal antibody P04662 (antibody, V domains shown)
# VH: EVQVVESGGGLVKPGGSLRLSCAASGFTFSTYAMSWVRQAPEQRLEWVAEISSGGSHTFYSDTVTGRFTISRDNAKNTLYLQMNSLRAEDTAVYYCARKTLDYYALDYWGQGTTVTVSS
# VL: DVQITQSPSSVSASVGDRVTINCRASKSISKYLAWYQQKPGKAPKLLIYSGSRLQSGVPSRFSGSGSGTDFTLTISSLQPEDFATYYCQQHNEYPWTFGGGTKLEIK
# B11: humanized anti-human TIGIT monoclonal antibody P04663 (antibody, V domains shown)
# VH: EVQVVESGGGLVKPGGSLRLSCAASGFTFSTYAMSWVRQAPEQRLEWVAEISSGGSHTFYADTVKGRFTISRDNAKNTLYLQMNSLRAEDTAVYYCARKTLDYYALDYWGQGTTVTVSS
# VL: DVQITQSPSSVSASVGDRVTINCRASKSISKYLAWYQQKPGKAPKLLIYSGSRLQSGVPSRFSGSGSGTDFTLTISSLQPEDFATYYCQQHNEYPWTFGGGTKLEIK
# How the values were obtained:
# [1] = target: T1, recombinant human TIGIT (Human TIGIT His, Sino Biological, 10917-H08H) (human, UniProt Q495A1 22-138); assay: BLI, antibody captured on anti-human Fc probe, TIGIT-His in solution
# T1 construct: range 1-138; bought; also called hTIGIT
# T1 sequence (looked up): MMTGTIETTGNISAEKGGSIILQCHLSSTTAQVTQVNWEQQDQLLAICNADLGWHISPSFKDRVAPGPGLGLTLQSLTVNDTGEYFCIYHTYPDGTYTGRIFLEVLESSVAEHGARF
# [2] = target: T1, recombinant human TIGIT (Human TIGIT …); assay: ELISA, coated human TIGIT-His
# [3] = target: T1, recombinant human TIGIT (Human TIGIT …); assay: ELISA, recombinant human TIGIT (His) coated, anti-human-Fc-AP, OD405/490
# Method: (§1) Antigen hTIGIT (Human TIGIT (His), Sino Biological, 10917-H08H) was diluted into 1 μg/mL with a NaHCO₃ solution of pH 9.6, 50 μl per well was added to a 96-well ELISA plate, and placed overnight in refrigerator at 4° C.
# (§2) In order to determine whether the humanized TIGIT monoclonal antibody of the present disclosure could bind to the recombinant human TIGIT protein, in vitro testing was performed. Murine antibodies and Tiragolumab (Tira) were used as positive controls. The experimental method was the same as in Example 3.1.
# [4] = target: T2, full-length human TIGIT expressed on CHO-K cell membrane (CHO-K-TIGIT) (human, UniProt Q495A1 22-244); assay: flow cytometry, CHO-TIGIT cells
# T2 construct: whole, on cells; also called CHO-TIGIT; membrane TIGIT
# T2 sequence (looked up): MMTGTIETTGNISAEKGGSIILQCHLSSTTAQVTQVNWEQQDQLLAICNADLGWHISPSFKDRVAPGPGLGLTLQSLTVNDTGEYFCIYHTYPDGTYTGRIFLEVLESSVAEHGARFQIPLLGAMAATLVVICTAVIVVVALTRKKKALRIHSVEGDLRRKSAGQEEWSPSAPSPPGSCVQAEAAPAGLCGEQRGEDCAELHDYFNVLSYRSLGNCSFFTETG
# [5] = target: T3, recombinant cynomolgus monkey TIGIT (cynomolgus monkey, UniProt A0A7N9I9V4 89-209); assay: ELISA, recombinant cynomolgus TIGIT coated, anti-mouse Fab secondary antibody, TMB, OD450/655nm
# T3 construct: construct not described; also called cynomolgus TIGIT
# T3 sequence (A0A7N9I9V4 entry or part of it): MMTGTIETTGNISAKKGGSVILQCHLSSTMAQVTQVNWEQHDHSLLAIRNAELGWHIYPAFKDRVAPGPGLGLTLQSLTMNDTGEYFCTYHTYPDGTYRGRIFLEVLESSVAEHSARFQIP
# Method: (§3) The cynomolgus monkey or mouse TIGIT antigen of was coated with the same method as above, the anti-human TIGIT mouse monoclonal antibody was diluted in gradient, and then the anti-mouse Fab secondary antibody was added (Jackson Immuno Research, 515-035-072) for TMB development. ELISA was used to detect the binding of 8 mouse monoclonal antibodies to recombinant cynomolgus monkey TIGIT.
# mouse TIGIT antigen = target: T4, mouse TIGIT antigen (mouse, UniProt P86176 29-148, limits assumed); assay: ELISA, coated mouse TIGIT
# T4 construct: construct not described; also called murine TIGIT
# T4 sequence (looked up): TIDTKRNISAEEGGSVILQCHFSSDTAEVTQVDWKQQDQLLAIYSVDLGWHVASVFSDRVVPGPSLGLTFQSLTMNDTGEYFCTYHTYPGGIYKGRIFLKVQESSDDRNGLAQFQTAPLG
# Method: as §3
# [6] = target: T1, recombinant human TIGIT (Human TIGIT …); assay: competition ELISA, coated TIGIT-His, CD155-Fc as competitor
# Method: In order to evaluate the competition between the anti-human TIGIT mouse monoclonal antibody and CD155 (Human CD155 (Fc Tag): Sino Biological, 10109-H02H) for binding to recombinant human TIGIT (Human TIGIT(His), Sino Biological, 10917-H08H), ELISA detection was performed, and the specific steps were as follows:
# Primary antibody incubation: the plate was washed twice with PBS (250 μl/well), and patched dry. 6 μg/ml of CD155 was respectively diluted in a binding solution and added into a 96-well dilution plate at 60 μl/well. Then the screened hybridoma antibody was diluted with the binding solution, (the highest concentration was 30 μg/ml), and diluted to 3 times of concentration, and added into the corresponding dilution plate above at 60 μl/well. After mixing well, the sample was added to the coated 96-well ELISA plate at 100 μl/well. The plate was sealed with a sealing film and placed at 37° C. for 1.5 hours.
# Secondary antibody incubation: the blocking solution was discarded, the plate was washed with 250 μl PBST for 3 times, and patched dry.
# [7] = target: T1, recombinant human TIGIT (Human TIGIT …); assay: competition ELISA, human TIGIT (His) coated, antibody titrated against fixed CD155, bound CD155 detected, OD450/655
# [8] = target: T1, recombinant human TIGIT (Human TIGIT …); assay: BLI, antibody captured on anti-human Fc probe, TIGIT-His in solution; remark: listed apart in the source
# [9] = target: T1, recombinant human TIGIT (Human TIGIT …); assay: competition ELISA on recombinant human TIGIT, CD155 as competitor
# [10] = target: T1, recombinant human TIGIT (Human TIGIT …); assay: ELISA, recombinant human TIGIT (His) coated, anti-human-Fc-AP, OD405/490; remark: listed apart in the source
# Method: as §1, §2
Binder,Kd [1] [pM],koff [1] [s⁻¹],kon [1] [M⁻¹ s⁻¹],EC50 [2] [pM],EC50 [3] [µg/mL],EC50 [4] [pM],binding result [5],binding result (mouse TIGIT antigen),IC50 [6] [pM],IC50 [7],Kd [8] [pM],koff [8] [s⁻¹],kon [8] [M⁻¹ s⁻¹],IC50 [9] [pM],EC50 [10]
B1,1430,0.000804,562000,532,0.0794,,,,,,,,,,
B2,1270,0.000664,522000,501,0.0749,,,,,,,,,,
B3,1880,0.00095,506000,471,0.0702,,,,,,,,,,
B4,1490,0.000781,525000,463,0.0692,437,,,,,,,,,
B5,1140,0.000584,511000,511,0.0763,,,,,,,,,,
B6,1120,0.000513,458000,444,0.0662,557,,,,,,,,,
B7,,,,37.2,,,no binding,no binding,85.7,,,,,,
B8,,,,85.8,,963,,,,0.109 µg/mL and 0.728 nM,8430,0.00495,587000,714,
B9,,,,,,,,,,,5580,0.00583,1.04e+06,,0.0136 µg/mL and 0.0913 nM
B10,,,,,,,,,,0.094 µg/mL,2400,0.0031,1.29e+06,630,0.0063 µg/mL and 0.0419 nM
B11,,,,,,,,,,0.089 µg/mL,2000,0.00307,1.53e+06,594,0.0049 µg/mL and 0.033 nM

# Reference: US20240417462A1 (SHANGHAI CELGEN BIO PHARMACEUTICAL, published 2024)
